These results are taken from patent US20160369011A1 (EISAI R AND D MANAGEMENT, published 2016).

Residue numbers refer to the chain shown, from its start. Some results are limits rather than exact numbers.

In test [1] the target is T1, human endosialin/TEM1 extracellular domain fused to mouse IgG2b Fc (human).
T1 construct: also called TEM1-Fc
T1 chain: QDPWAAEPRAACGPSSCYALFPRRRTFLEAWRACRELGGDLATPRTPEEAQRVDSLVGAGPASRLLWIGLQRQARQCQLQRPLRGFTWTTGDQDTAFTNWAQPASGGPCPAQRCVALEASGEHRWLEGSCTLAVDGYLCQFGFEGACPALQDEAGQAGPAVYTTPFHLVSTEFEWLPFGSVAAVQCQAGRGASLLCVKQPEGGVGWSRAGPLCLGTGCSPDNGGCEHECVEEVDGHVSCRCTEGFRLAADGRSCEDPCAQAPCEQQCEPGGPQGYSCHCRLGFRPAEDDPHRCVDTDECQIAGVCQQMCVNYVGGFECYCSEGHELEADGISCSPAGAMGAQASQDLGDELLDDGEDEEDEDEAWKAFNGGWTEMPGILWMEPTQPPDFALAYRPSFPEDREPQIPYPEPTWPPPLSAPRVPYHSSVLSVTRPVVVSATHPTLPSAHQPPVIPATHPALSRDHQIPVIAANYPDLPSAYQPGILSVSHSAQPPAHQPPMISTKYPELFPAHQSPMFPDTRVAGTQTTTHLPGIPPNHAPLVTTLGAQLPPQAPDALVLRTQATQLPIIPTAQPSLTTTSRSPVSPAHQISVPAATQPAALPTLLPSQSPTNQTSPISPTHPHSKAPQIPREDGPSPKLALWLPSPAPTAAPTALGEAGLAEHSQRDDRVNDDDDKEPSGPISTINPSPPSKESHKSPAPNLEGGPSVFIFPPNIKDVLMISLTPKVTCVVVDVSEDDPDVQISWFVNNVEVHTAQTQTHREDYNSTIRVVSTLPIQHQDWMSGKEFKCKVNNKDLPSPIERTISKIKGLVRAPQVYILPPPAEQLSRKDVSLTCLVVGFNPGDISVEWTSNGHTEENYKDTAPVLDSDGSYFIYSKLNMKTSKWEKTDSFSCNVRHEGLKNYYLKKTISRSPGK
The experiment in a line: SPR, ligand TEM1-Fc, flow cell Fc3. (SPR reads the build-up and loss of mass on a sensor chip optically.)

The target of test [2] is T1, human endosialin/TEM1 extracellular …. The experiment in a line: SPR, ligand TEM1-Fc, flow cell Fc4.
In test [3] the target is T2, human CA9 (carbonic anhydrase IX) (human, UniProt Q16790 38-414). The experiment in a line: BIAcore T100, mAb captured on anti-human IgG, antigen as analyte, 1:1 model; mAb purified by protein A (ProA). The method, then:
(§1) Antibody concentrations were adjusted to generate 30-40 RU signal when bound to the antigen. […] The sensor surface was washed by injecting HBS-P buffer for 1 min at a flow rate of 50 μL/min. To record the antigen association to the captured mAb, a series of increasing concentrations of antigen was injected for 60 sec at a flow rate of 50 μL/min. The dissociation of antigen was monitored for 30 min at the same flow rate. The sensor surface was regenerated by injecting 3 M MgCl₂ for 1 min and then 30 sec at a flow rate of 30 μL/min. Sensograms were analyzed with Biacore T100 Evaluation Software using a 1:1 Langmuir binding model.
(§2) xi155D5 and the humanized variants were purified by standard protein A chromatography or the decapping method, and their affinity was analyzed using BIAcore (Table 13).

Test [4] addresses T2, human CA9 (carbonic anhydrase IX). The experiment in a line: BIAcore, summary of Table 13; reference xi155D5; told of the group of humanized variants. As for the experimental part: as §1, §2
Test [5] shares this target. The test can be described thus: BIAcore T100, mAb captured on anti-human IgG, antigen as analyte, 1:1 model; mAb purified by the decapping method (Decapped). As for the experimental part: as §1, §2
The target is the same in test [6]. The experiment in a line: SPR (BIAcore), biotin-CA9 captured on CAP chip, antibody 0-50 nM as analyte. As for the experimental part: To determine if chimerization, and therefore the loss of Cys80-Cys171 disulfide bond, results in structural perturbations leading to loss of antigen binding, the binding affinity of mAbs 155D5, xi155D5, 1-55-2, and xi1-55-2 by surface plasmon resonance was evaluated. Biotinylated ligand (biotin-hTEM1 for 1-55-2, biotin-CA9 for 155D5) was captured on a coated biotin CAP BIAcore chip (GE Healthcare, Piscataway, N.J.) using HBS-EP as running buffer. Final antigen capture levels were 130 RU and 280 RU, respectively, for biotin-TEM1 and biotin-CA9. Serial dilutions of antibody (120 μL of 0-50 nM) were passed over the ligand-coated chip. […] The chip surface was regenerated with 6 M GuHCl, 250 mM NaOH. Sensograms were double referenced and kinetic parameters were determined using BIAEvaluations software (ver. 4.1).

The target is the same in test [7]. The test can be described thus: SPR, ligand CA9, flow cell Fc4.
For test [8] the target is unchanged. The test can be described thus: SPR, ligand CA9, flow cell Fc3.

B1: xi1-55-2 Fab (Fab, V domains shown)
VH: QSVEESGGDLVKPEGSLTLTCTASGFSFSSSYWGCWVRQAPGKGPEWIACIYGGSSGTTYYPNWAKGRFSISKTSSTTVTLQMASLTAADTATYFCARVTNGGDWDFKLWGPGTLVTISS
VL: ELVMTQTPASVEVAVGGTVTIKCQASQSINTYLAWYQQKPGQPPKLLIYRASTLASGVPSRFKGSGSGTEFTLTISDLECADAATYYCQQSVRVIDVDNTFGGGTEVVVKR
notes: Made from xi1-55-2 by limited papain digestion and protein A removal of Fc; Fabs were fully decapped; not shown: human IgG1 CH1 and hinge up to the papain cleavage site
In general, Kd refers to the constant that tells how readily two partners part at equilibrium. Higher therefore signals lower affinity. As a reminder, the koff is a measure of how fast the partners let go of each other. A higher koff goes with fast dissociation. What is called kon is the rate constant with which the complex forms. Read a low kon as slower complex formation. In test [1], B1 showed a Kd of 0.382 nM, a koff of 0.000329 s⁻¹ and a kon of 862000 M⁻¹ s⁻¹. Also, in test [2], the Kd was 0.376 nM, the dissociation rate constant (koff) came out at 0.000326 s⁻¹ and the kon was 865000 M⁻¹ s⁻¹.

B2: zu155D5-4 (antibody, human IgG1, kappa)
heavy: not shown
light: DIQMTQSPSTLSASVGDRVTITCQASQSISSYLAWYQQKPGKAPKLLIYYASTLASGVPSRFSGSGSGTEFTLTITGVQCDDAATYYCLGVYGYSFDDGIAFGGGTKVEIKRTVAAPSVFIFPPSDEQLKSGTASVVCLLNNFYPREAKVQWKVDNALQSGNSQESVTEQDSKDSTYSLSSTLTLSKADYEKHKVYACEVTHQGLSSPVTKSFNRGEC
notes: Humanized 155D5, human IgG1 kappa; Tested both protein A purified and decapped
In test [3], B2 came in with a Kd of 0.664 nM, a koff of 0.000382 s⁻¹ and a kon of 577000 M⁻¹ s⁻¹. For the same molecule, the “fold difference in KD against chimeric xi155D5” value (from here on “fold difference in KD”) in test [4] was < 2 fold. Further, in test [5], the Kd worked out at 0.59 nM, the koff stood at 0.000378 s⁻¹ and the kon came out at 641000 M⁻¹ s⁻¹.

B3: zu155D5-6 (antibody, human IgG1, kappa)
heavy: not shown
light: B2 light with L11V, S14A, D17G, R18T
notes: as for B2
On to B3, for which, in test [3], binding was put at a Kd of 0.533 nM, the koff was 0.000477 s⁻¹ and the kon came out at 898000 M⁻¹ s⁻¹. Further, the “fold difference in KD” value in test [4] was < 2 fold. In test [5], this molecule yielded a Kd of 0.568 nM, a koff of 0.000319 s⁻¹ and a kon of 558000 M⁻¹ s⁻¹.

B4: zu155D5-3 (antibody, human IgG1, kappa, V domains shown)
VH: QVQLVESGGGLVQPGGSLRLSCSASGFSLNSYAMIWVRQAPGKGLEYIGFITTGGTTYYADSVKGRFTISRDNSKNTLYLQMNSLRAEDTAVYYCARDRVKSYDDYGDLDAFEPWGQGTLVTVSS
VL: DIQMTQSPSTLSASVGDRVTITCQASQSISSYLAWYQQKPGKAPKLLIYYASTLASGVPSRFSGSGSGTEFTLTISSLQCDDAATYYCLGVYGYSFDDGIAFGGGTKVEIKR
notes: Humanized 155D5, human IgG1 kappa; Tested both protein A purified and decapped; also called zu155D5-CXXA
In test [3], B4 registered a Kd of 0.562 nM, a koff of 0.000401 s⁻¹ and a kon of 727000 M⁻¹ s⁻¹. Further, the “fold difference in KD” value in test [4] was < 2 fold. Besides, in test [5], the Kd stood at 0.507 nM, the koff was 0.000351 s⁻¹ and the kon came out at 726000 M⁻¹ s⁻¹.

B5: zu155D5-1 (antibody, human IgG1, kappa, V domains shown)
VH: B4 VH
VL: B4 VL with A83F
notes: Humanized 155D5, human IgG1 kappa; Tested both protein A purified (Cys80 capped) and decapped; also called zu155D5-CXXF; zu155D5-1 (huVK1-5)
On to B5, for which, in test [3], the affinity, expressed as Kd, was 0.498 nM; the koff was 0.000495 s⁻¹; the kon is 1.01e+06 M⁻¹ s⁻¹. Moreover, in test [4], the “fold difference in KD” value is < 2 fold. In test [5], this molecule registered a Kd of 0.5 nM, a koff of 0.000355 s⁻¹ and a kon of 770000 M⁻¹ s⁻¹.

B6: zu155D5-2 (antibody, human IgG1, kappa, V domains shown)
VH: B4 VH
VL: B4 VL with S76T, S77G, L78V, A83F
notes: as for B2
Turning to B6, in test [3], the Kd was determined as 0.569 nM, the koff is 0.000376 s⁻¹ and the kon was 663000 M⁻¹ s⁻¹. The “fold difference in KD” value in test [4] was < 2 fold. For the same molecule, in test [5], binding was characterised by a dissociation constant (Kd) of 0.589 nM, the off-rate (koff) was found to be 0.00027 s⁻¹ and the kon is 458000 M⁻¹ s⁻¹.

B7: zu155D5-7 (antibody, human IgG1, kappa)
heavy: not shown
light: B2 light with K107E, V108L
notes: as for B2
In test [3], B7 had a Kd of 0.534 nM, a koff of 0.000458 s⁻¹ and a kon of 869000 M⁻¹ s⁻¹. Moreover, in test [4], the “fold difference in KD” value was < 2 fold. For the same molecule, in test [5], the equilibrium dissociation constant (Kd) stood at 0.68 nM, the koff came to 0.000319 s⁻¹ and the kon was determined as 485000 M⁻¹ s⁻¹.

B8: zu155D5-5 (antibody, human IgG1, kappa, V domains shown)
VH: B4 VH
VL: B4 VL with S63K, S76T, S77G, L78V
notes: as for B2
In test [3], B8 displayed a Kd of 0.639 nM, a koff of 0.000373 s⁻¹ and a kon of 587000 M⁻¹ s⁻¹. Moreover, in test [4], the “fold difference in KD” value is < 2 fold. Moreover, in test [5], binding was characterised by a dissociation constant (Kd) of 0.478 nM, the koff came out at 0.000273 s⁻¹ and the kon was determined as 572000 M⁻¹ s⁻¹.

B9: 155D5 (rabbit anti-CA9 mAb) (antibody, V domains shown)
VH: QSVKESGGRLVTPGTPLTLTCTVSGFSLNSYAMIWVRQAPGEGLEYIGFITTGGTTYYASWAKGRFTISRTSTTVDLKLTRPTTEDTATYFCARDRVKSYDDYGDLDAFEPWGPGTLVTISS
VL: ELVMTQTPSSVSAAVGGTVTINCQASQSISSYLAWYQQKPGQPPKLLIYYASTLASGVPSRFKGSGSGTEFTLTITGVQCDDAATYYCLGVYGYSFDDGIAFGGGTELEIK
notes: Parental rabbit IgG with rabbit constant regions (Cys80-Cys171 disulfide); also called rabbit 155D5 MAb
Take B9: in test [6], the Kd was found to be 0.041 nM, the koff was 2.1e-05 s⁻¹ and the kon amounted to 510000 M⁻¹ s⁻¹.

B10: xi155D5 Fab (Fab, V domains shown)
VH: B9 VH
VL: ELVMTQTPSSVSAAVGGTVTINCQASQSISSYLAWYQQKPGQPPKLLIYYASTLASGVPSRFKGSGSGTEFTLTITGVQCDDAATYYCLGVYGYSFDDGIAFGGGTELEIKR
notes: Made from xi155D5 by limited papain digestion and protein A removal of Fc; Fabs were fully decapped; not shown: human IgG1 CH1 and hinge up to the papain cleavage site
Take B10: in test [7], the Kd came out at 0.0499 nM, the koff was determined as 2.59e-05 s⁻¹ and the kon came to 519000 M⁻¹ s⁻¹. Moreover, in test [8], the dissociation constant Kd was found to be 0.0383 nM, the koff was 2.19e-05 s⁻¹ and the kon was 572000 M⁻¹ s⁻¹.
